From US20240360226A1 (AstraZeneca / MedImmune, published 2024) come the findings set out here.

Experiment [1] concerns the target EGFR and c-MET co-expressed on HCC827 cells. The experiment can be described thus: confocal fluorescence microscopy, AF647-labelled antibody pre-bound to cells, T=0.
Experiment [2] has the same target. The experiment can be described thus: confocal fluorescence microscopy, AF647-labelled antibody pre-bound to HCC827 cells, T=0.
The target of experiment [3] is EGFR and c-MET co-expressed on NCI-H1975 cells. Kind of experiment: confocal fluorescence microscopy, AF647-labelled antibody pre-bound to H1975 cells, T=0.
The target of a further experiment is T1, HER3 (Homo sapiens (Human), UniProt P21860 20-643).
T1 construct: also called EGFR HER family protein HER3
The experiment can be described thus: ELISA, antigen coated at 1 ug/mL, anti-human Fab-HRP detection, A450.

The target in experiment [4] is T2, Human cMET (recombinant, soluble monomeric) (human, UniProt P08581 25-932).
T2 construct: also called His-tagged cMET antigen
T2 sequence (P08581 25-932): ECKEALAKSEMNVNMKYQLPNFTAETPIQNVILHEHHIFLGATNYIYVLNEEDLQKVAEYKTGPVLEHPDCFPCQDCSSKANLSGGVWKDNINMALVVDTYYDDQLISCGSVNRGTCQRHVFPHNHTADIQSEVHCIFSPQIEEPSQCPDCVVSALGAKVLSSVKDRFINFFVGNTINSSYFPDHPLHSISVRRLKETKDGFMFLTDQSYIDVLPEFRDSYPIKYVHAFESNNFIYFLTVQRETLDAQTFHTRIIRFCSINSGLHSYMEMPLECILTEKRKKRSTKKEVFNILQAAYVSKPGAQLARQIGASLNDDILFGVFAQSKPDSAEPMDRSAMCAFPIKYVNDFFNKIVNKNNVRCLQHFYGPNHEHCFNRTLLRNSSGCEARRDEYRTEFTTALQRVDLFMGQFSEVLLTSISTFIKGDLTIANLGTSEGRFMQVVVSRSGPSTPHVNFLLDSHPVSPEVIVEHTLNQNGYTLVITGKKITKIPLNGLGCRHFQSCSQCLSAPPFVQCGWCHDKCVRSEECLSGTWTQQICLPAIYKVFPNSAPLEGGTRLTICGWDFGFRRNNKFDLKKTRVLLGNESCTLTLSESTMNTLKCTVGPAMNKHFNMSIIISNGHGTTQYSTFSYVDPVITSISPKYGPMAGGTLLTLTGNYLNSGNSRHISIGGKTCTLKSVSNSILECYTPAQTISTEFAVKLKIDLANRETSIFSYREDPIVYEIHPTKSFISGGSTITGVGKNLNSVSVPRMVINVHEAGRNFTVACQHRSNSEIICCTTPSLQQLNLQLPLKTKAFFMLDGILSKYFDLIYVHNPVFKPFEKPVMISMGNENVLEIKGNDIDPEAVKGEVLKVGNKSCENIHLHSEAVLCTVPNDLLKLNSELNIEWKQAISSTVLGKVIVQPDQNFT
Kind of experiment: SPR (Biacore T200), antibody captured on anti-human IgG, soluble monomeric antigen as analyte, 25 C. As to the method:
(§1) Mouse anti-human IgG was immobilized on a CM4 sensor chip with a final surface density of ˜2000 resonance units (RUs). A reference flow cell surface was also prepared on this sensor chip using identical immobilization protocol. Test and control article antibodies were prepared at 5-20 nM in instrument buffer (HBS-EP buffer; 0.01M HEPES, pH 7.4, 0.15M NaCl, 3 mM EDTA, and 0.005% P-20), along with 3-fold serial dilutions of purified EGFR (0.27-200 nM human, 0.4-900 nM cyno, and 4-1000 nM murine) or cMET proteins (0.27 to 66 nM human and 0.27-22 nM cyno) in instrument buffer. A sequential approach was utilized for kinetic measurements. Antibodies were first injected over the capture surface, at a flow rate of 10 μL/minute. Once the binding of the captured antibody stabilized, a single concentration of the analyte was injected over both capture and reference surfaces, at a flow rate of 75 μL/minute. The resulting binding response curves yielded the association phase data. Following the injection of analyte, the flow was then switched back to instrument buffer for 15 minutes to permit the collection of dissociation phase data, followed by a 1-minute pulse of 10 mM glycine, pH 1.5, to regenerate the antibody-captured surface on the chip. Binding responses against test and control article antibodies were recorded from duplicate injections of each concentration of analyte. In addition, several buffer injections were interspersed throughout the injection series. Select buffer injections were used along with the reference cell responses to correct the raw data sets for injection artifacts and/or nonspecific binding interactions, commonly referred to as “double referencing”. Corrected binding data were globally fit to a 1:1 binding model (Biacore T200 Evaluation software 2.0, GE Healthcare, Pittsburgh, PA).
(§2) Kinetic measurements to soluble monomeric forms of EGFR and cMET were performed using a BIACore instrument.
(In SPR one partner is held on a chip, and binding of the other changes the refractive index at the surface.)

For experiment [5], the target named is T3, Mouse EGFR (recombinant, soluble monomeric) (mouse, UniProt Q01279 25-647).
T3 construct: also called murine EGFR
Described as above. As to the method: as §1, §2

In experiment [6] the target is T4, Cynomolgus monkey cMET (recombinant, soluble monomeric) (cynomolgus monkey, UniProt A0M8R7 25-932 (Papio anubis entry)).
T4 construct: also called cyno c-Met
T4 sequence (A0M8R7 25-932 S170N/I621T): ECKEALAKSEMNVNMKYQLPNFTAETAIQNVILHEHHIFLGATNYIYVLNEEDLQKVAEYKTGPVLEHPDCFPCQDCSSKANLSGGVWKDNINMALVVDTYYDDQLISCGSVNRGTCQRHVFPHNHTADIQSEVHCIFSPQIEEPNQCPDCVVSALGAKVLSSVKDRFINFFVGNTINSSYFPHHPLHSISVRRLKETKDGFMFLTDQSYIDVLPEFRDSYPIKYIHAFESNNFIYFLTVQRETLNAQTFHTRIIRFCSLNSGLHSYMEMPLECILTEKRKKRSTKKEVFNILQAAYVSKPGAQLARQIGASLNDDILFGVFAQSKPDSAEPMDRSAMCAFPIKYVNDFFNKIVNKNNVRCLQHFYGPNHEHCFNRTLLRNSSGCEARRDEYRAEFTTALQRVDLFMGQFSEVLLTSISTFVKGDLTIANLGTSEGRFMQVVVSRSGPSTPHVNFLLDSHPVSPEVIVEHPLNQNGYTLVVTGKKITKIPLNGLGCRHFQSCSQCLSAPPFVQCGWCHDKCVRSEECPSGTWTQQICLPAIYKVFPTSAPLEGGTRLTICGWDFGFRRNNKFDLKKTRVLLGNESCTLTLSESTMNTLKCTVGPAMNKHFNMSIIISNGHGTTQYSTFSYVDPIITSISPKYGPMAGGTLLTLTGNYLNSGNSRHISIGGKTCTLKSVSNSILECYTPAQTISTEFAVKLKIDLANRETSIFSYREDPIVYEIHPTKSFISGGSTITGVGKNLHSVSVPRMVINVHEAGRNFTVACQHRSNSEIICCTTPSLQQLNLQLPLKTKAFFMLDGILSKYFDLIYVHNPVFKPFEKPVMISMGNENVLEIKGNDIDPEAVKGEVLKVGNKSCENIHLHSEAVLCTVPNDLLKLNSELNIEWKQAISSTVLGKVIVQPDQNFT
Described as above. As to the method: as §1, §2

Experiment [7] deals with T5, Human EGFR (recombinant, soluble monomeric) (human, UniProt P00533 25-645).
T5 construct: also called EGFR antigen; recombinant human EGFR
Described as above. As for the experimental part:
as §1, §2

For experiment [8], the target named is T6, Cynomolgus monkey EGFR (recombinant, soluble monomeric) (cynomolgus monkey, UniProt P55245 25-645 (rhesus entry)).
T6 construct: also called cyno EGFR
The experiment is described as above. As for the experimental part:
as §1, §2

In the next experiment the target is T7, HER4 (Homo sapiens (Human), UniProt Q15303 26-651).
T7 construct: also called EGFR HER family protein HER4
T7 sequence: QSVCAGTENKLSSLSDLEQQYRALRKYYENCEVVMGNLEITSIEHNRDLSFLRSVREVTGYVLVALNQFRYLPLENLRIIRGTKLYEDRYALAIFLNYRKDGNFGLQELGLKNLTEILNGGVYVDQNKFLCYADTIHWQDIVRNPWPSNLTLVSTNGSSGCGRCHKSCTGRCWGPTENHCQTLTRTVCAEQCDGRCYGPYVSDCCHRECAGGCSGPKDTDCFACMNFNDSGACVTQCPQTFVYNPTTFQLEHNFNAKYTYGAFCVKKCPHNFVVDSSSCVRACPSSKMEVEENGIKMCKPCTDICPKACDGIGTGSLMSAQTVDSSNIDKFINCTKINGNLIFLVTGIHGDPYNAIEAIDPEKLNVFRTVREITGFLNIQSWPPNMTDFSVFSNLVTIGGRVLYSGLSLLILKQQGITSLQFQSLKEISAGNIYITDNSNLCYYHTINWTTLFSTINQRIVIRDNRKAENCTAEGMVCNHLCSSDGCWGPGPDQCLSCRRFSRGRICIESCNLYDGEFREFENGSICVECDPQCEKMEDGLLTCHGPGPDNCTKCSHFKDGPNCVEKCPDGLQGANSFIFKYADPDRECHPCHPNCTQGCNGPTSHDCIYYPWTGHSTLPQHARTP
Kind of experiment: ELISA, antigen coated at 1 ug/mL, anti-human Fab-HRP detection, A450.

Another experiment deals with T8, HER2 (Homo sapiens (Human), UniProt P04626 23-652).
T8 construct: also called EGFR HER family protein HER2
The description is as above.

In the next experiment the target is Mouse cMET (recombinant) (mouse, UniProt P16056 25-931, limits assumed). The experiment is described as above. As for the experimental part: (§3) Specificity for EGFR and cMET species paralogs and closely related family members was determined by ELISA. Briefly, antigen solutions were prepared in PBS at 1 μg/mL and 50 microliters was coated onto half area ELISA assay plates. Plates were washed and blocked with 1% BSA in PBS containing 0.005% Tween-20 (PBS-T) for one hour at room temperature. […] Wells were incubated with 50 microliters of the indicated primary antibodies diluted in PBS-T in a 1:3 dilution series, starting at 10 μg/mL and ending at 0.002 ug/mL, except for the HER4 binding mAb control, MAB1131, for which the series started at 1 μg/mL. The wells were washed 4 times in PBS-T, then 50 μl of goat anti-human Fab HRP-labeled secondary antibody, diluted 1:5000 in PBS-T, was added to each well and incubated for one hour at room temperature. […] 50 microliters of TMB stop solution was added to all wells and the absorbance was read at 450 nm on a SpectraMax M5 microplate reader. Data were analyzed in the SoftMax Pro 5 software and plotted using GraphPad Prism 7 graphing software.
Mouse cMET (recombinant), sequence (P16056 25-931 limits assumed): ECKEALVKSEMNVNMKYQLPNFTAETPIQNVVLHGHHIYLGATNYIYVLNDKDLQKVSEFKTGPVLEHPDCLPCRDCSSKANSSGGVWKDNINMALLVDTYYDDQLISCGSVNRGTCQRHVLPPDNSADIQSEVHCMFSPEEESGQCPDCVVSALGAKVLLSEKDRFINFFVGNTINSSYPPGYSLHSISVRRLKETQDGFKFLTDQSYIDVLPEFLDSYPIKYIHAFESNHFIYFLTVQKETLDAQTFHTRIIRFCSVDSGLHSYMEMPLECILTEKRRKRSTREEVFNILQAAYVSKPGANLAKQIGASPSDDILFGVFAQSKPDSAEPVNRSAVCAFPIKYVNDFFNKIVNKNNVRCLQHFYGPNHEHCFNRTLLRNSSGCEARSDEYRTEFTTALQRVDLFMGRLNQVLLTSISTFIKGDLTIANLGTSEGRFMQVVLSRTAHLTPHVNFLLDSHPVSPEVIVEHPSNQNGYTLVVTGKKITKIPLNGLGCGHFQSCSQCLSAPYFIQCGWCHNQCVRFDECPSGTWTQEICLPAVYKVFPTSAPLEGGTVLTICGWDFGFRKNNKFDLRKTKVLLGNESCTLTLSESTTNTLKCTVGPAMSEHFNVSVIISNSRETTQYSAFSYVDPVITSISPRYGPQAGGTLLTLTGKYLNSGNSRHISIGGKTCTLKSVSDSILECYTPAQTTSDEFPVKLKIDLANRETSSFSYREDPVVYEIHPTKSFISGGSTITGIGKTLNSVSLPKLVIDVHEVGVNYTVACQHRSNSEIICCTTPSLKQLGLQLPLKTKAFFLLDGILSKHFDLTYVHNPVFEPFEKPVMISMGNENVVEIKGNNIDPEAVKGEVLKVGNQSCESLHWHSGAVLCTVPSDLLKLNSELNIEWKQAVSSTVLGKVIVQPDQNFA
(§4) To determine the species cross reactivity, ELISA assays were carried out as described above.

For experiment [9], the target named is c-MET on human tumour cells (NCI-H1975, HCC827) (human) (UniProt P08581). Kind of experiment: cell-based or functional assay.
c-MET on human tumour cells (NCI-H1975, HCC827) (human), sequence (P08581 25-1390): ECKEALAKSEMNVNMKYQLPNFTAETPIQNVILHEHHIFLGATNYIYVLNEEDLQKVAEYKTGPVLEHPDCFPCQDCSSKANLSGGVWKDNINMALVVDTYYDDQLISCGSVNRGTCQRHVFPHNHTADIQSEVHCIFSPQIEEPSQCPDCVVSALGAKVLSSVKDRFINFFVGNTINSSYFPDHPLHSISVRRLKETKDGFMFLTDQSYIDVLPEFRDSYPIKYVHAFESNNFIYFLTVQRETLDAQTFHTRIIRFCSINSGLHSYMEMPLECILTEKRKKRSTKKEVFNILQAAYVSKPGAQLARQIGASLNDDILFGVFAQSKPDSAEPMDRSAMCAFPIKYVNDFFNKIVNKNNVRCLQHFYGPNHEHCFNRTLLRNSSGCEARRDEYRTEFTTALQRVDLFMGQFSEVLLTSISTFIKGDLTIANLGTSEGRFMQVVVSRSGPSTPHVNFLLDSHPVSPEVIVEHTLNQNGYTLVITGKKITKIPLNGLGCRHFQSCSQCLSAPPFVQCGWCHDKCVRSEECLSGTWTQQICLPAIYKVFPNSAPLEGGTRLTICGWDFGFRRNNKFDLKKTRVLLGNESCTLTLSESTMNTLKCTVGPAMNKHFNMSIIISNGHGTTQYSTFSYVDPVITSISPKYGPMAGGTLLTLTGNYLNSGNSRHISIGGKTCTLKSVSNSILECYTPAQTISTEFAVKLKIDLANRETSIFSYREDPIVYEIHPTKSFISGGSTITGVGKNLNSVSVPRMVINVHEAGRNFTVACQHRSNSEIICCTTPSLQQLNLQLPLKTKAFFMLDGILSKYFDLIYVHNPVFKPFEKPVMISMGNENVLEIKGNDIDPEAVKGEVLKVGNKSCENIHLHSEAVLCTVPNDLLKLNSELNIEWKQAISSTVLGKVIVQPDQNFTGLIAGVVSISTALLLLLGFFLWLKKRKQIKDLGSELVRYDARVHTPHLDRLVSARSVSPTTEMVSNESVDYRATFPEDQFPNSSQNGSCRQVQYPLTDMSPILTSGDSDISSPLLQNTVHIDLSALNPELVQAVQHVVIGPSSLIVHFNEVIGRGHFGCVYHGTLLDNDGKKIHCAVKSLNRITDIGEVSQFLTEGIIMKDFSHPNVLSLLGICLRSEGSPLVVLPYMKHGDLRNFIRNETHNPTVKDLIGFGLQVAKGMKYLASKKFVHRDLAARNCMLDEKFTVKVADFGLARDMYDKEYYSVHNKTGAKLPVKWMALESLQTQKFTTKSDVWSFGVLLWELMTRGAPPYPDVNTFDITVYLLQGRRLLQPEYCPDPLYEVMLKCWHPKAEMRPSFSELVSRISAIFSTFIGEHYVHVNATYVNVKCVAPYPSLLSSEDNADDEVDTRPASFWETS
The target of experiment [10] is T2, Human cMET (recombinant, soluble …). The experiment can be described thus: ELISA, antigen coated at 1 ug/mL, anti-human Fab-HRP detection, A450. As to the method:
as §3, §4
(In general: In an ELISA, binding on a coated surface is turned into a signal by an enzyme label.)

For experiment [11], the target named is T4, Cynomolgus monkey cMET (recombinant, …). Described as above. As for the experimental part: as §3, §4

B1: RAA22/B09-57 DuetMab (bispecific antibody, human IgG1, kappa, lambda)
heavy 1: QVQLVQSGAEVKKPGSSVKVSCKASGGTFSDNDFSWVRQAPGQGLEWMGAIVAVFRTETYAQKFQDRVKITADISTRTTYMELSSLRSEDTAVYYCARRLMSAISGPGAPLLMWGQGTLVTVSSASTKGPSVFPLAPSSKSTSGGTAALGCLVKDYFPEPVTVSWNSGALTSGVHTFPAVLQSSGLYSLSSVVTVPSSSLGTQTYICNVNHKPSNTKVDKRVEPKSCDKTHTCPPCPAPELLGGPSCVFLFPPKPKDTLMISRTPEVTCVVVDVSHEDPEVKFNWYVDGVEVHNAKTKPREEQYNSTYRVVSVLTVLHQDWLNGKEYKCKVSNKALPAPIEKTISKAKGQPREPQVCTLPPSREEMTKNQVSLSCAVKGFYPSDIAVEWESNGQPENNYKTTPPVLDSDGSFFLVSKLTVDKSRWQQGNVFSCSVMHEALHNHYTQKSLSLSPGK
light 1: QSALTQPRSVSGSPGQSVTISCTGTSSDVGGYNYVSWYQQHPGKAPKLMIYDVSKRPSGVPDRFSGSKSGNTASLTISGLQAEDEADYYCSSYTSSDTLEIFGGGTKLTVLGQPKAAPSVTLFPPSSEELQANKATLVCLISDFYPGAVTVAWKADSSPVKAGVETTTPSKQSNNKYAASSYLSLTPEQWKSHRSYSCQVTHEGSTVEKTVAPTECS
heavy 2: QVQLVQSGAEVKKPGASVKVSCKASGYTFTDYYIHWVRQATGQGLEWMGWMNPNSGNTGYAQKFQGRVTMTRDTSISTAYMELSSLRSEDTAVYYCARGQGYTHSWGQGTMVTVSSASTKGPSVCPLAPSSKSTSGGTAALGCLVKDYFPEPVTVSWNSGALTSGVHTFPAVLQSSGLYSLSSVVTVPSSSLGTQTYICNVNHKPSNTKVDKRVEPKSVDKTHTCPPCPAPELLGGPSCVFLFPPKPKDTLMISRTPEVTCVVVDVSHEDPEVKFNWYVDGVEVHNAKTKPREEQYNSTYRVVSVLTVLHQDWLNGKEYKCKVSNKALPAPIEKTISKAKGQPREPQVYTLPPCREEMTKNQVSLWCLVKGFYPSDIAVEWESNGQPENNYKTTPPVLDSDGSFFLYSKLTVDKSRWQQGNVFSCSVMHEALHNHYTQKSLSLSPG
light 2: DIQMTQSPSTLSASVGDRVTITCRASEGIYHWLAWYQQKPGKAPKLLIYKASSLASGVPSRFSGSGSGTEFTLTISSLQPDDFATYYCQQYSNYPPTFGGGTKLEIKRTVAAPSVFIFPPCDEQLKSGTASVVCLLNNFYPREAKVQWKVDNALQSGNSQESVTEQDSKDSTYSLSSTLTLSKADYEKHKVYACEVTHQGLSSPVTKSFNRGEV
notes: Labelled with AlexaFluor-647 in the microscopy experiments; also called RAA22/B09-Maia; bispecific EGFR/cMET DuetMAb
By Kd is commonly meant the concentration at which binding is half-saturated. The koff is the rate constant with which the complex falls apart. Broadly, the kon is a measure of how fast the partners come together. The molecule B1 returned a fold higher binding than on H1975 cells in [1] of 8.9 fold. For the same molecule, the MFI in experiment [2] turned out to be 3.1e+07 MFI; in experiment [3] it was 3.5e+06 MFI. In addition, the binding result with HER3, with HER4, with HER2 and in the experiment with Mouse cMET (recombinant) was “no binding (tested: 10 ug/ml)” each time. Also, the Kd amounted to 2.2 nM in [4]; 575 nM in [5]; 2.2 nM in experiment [6]; 45 nM in experiment [7]; 197 nM in [8]. For the same molecule, the dissociation rate constant (koff) in experiment [4] was 0.000986 s⁻¹; in experiment [5], 0.0206 s⁻¹; in experiment [6] it was 0.00212 s⁻¹; in [7] it was 0.00201 s⁻¹; in experiment [8] it was 0.00548 s⁻¹. In addition, the on-rate constant (kon) turned out to be 443000 M⁻¹ s⁻¹ in experiment [4]; 35400 M⁻¹ s⁻¹ in experiment [5]; 974000 M⁻¹ s⁻¹ in experiment [6]; 44700 M⁻¹ s⁻¹ in [7]; 27800 M⁻¹ s⁻¹ in experiment [8].

B2: B09/R347 (bispecific antibody, part only; not given: non-binding arm and constant regions, V domains shown, not shown: another chain or arm of the molecule; a dimerising Fc or GST; small tags and cut ends)
VH: QVQLVQSGAEVKKPGASVKVSCKASGYTFTDYYIHWVRQATGQGLEWMGWMNPNSGNTGYAQKFQGRVTMTRDTSISTAYMELSSLRSEDTAVYYCARGQGYTHSWGQGTMVTVSS
VL: DIQMTQSPSTLSASVGDRVTITCRASEGIYHWLAWYQQKPGKAPKLLIYKASSLASGVPSRFSGSGSGTEFTLTISSLQPDDFATYYCQQYSNYPPTFGGGTKLEIK
modifications: AlexaFluor-647 or pHAb dye label on amines; positions not defined
As for B2, in experiment [9], the cytoplasmic intensity of AF647-labelled antibody in H1975 cells, fold higher for RAA22/B09 DuetMab than for B09-IgG (FIG. 7B) turned out to be 4.7 fold.

B3: QD6 IgG (antibody, V domains shown)
VH: QVQLVQSGAEVKKPGSSVKVSCKASGGTFSDNDFSWVRQAPGQGLEWMGAIVAVVRTETYAQKFQDRVKITADISTRTTYMELSSLRSEDTAVYYCARRLMSAISGPGAPLLMWGQGTLVTVSS
VL: QSALTQPRSVSGSPGQSVTISCTGTSSDVGGYNYVSWYQQHPGKAPKLMIYDVSERPSGVPDRFSGSKSGNTASLTISGLQAEDEADYYCFSYTSSDTLEIFGGGTKLTVL
notes: Only variable domains are tied to the parental IgG; also called QD06; anti-EGFR antibody clone QD6
As to B3, the binding result (with HER3; with HER4; with HER2; in experiment [10]; in experiment [11]; with Mouse cMET (recombinant)) was “no binding (tested: 10 ug/ml)” in each case. For the same molecule, the equilibrium dissociation constant (Kd) in [5] came to 4.4 nM; in experiment [7] it was 2 nM; in experiment [8] it was 2.5 nM. Further, the koff in [5] is 0.000735 s⁻¹; in [7], 0.000292 s⁻¹; in experiment [8], 0.000288 s⁻¹. Besides, the association rate constant (kon) in experiment [5] was found to be 167000 M⁻¹ s⁻¹; in experiment [7] it was 148000 M⁻¹ s⁻¹; in experiment [8] it was 114000 M⁻¹ s⁻¹.
